Test results: publication PMC3097263

Target: MqsA (UniProt Q46864 1-131)
Experiment: EMSA

Chain of MqsA (Q46864 whole entry): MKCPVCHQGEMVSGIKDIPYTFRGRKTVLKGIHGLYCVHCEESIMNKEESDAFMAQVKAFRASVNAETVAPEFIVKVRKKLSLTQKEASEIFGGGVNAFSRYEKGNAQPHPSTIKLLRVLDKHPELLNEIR

B1: PrpoS 25-mer (dsDNA)
DNA 1: TGGTCAGACCTTGCAGGTGGGTAAT
DNA 2: ATTACCCACCTGCAAGGTCTGACCA
  binding result: binds
